Measurements reported in the supplement of paper PMC9170038.

System: MS2 coat protein
Experiment: apparent KD of MS2 coat protein; designed switch direction (-1 OFF switch, 1 ON switch): 1; higher = weaker reporter binding
How it was run: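 Normalised cluster fluorescence was curve-fitted, and each design's median over clusters is its apparent KD. Before this, SNAP-549-labelled MS2 coat protein was titrated from 0.7 or 1.5 nM, doubling to 3 µM, over RNA switches transcribed on Illumina chips by stalled E. coli RNA polymerase. Titrations had no input, 200 uM small-molecule ligand, or an oligonucleotide input, and steps lasted 0.8–1.5 h (lowest) to 10–20 min (highest).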

[1] = input ligand: microRNA oligo, concentration not stated
[2] = Eterna round: R95, input ligand: microRNA oligo, concentration not stated

Sequence | apparent KD of MS2 coat protein (input ligand: FMN 200 uM) | apparent KD of MS2 coat protein [1] | apparent KD of MS2 coat protein (input ligand: none) | apparent KD of MS2 coat protein (Eterna round: R95, input ligand: FMN 200 uM) | apparent KD of MS2 coat protein [2] | apparent KD of MS2 coat protein (Eterna round: R95, input ligand: none)
GCCGGCUGGUGAGGAUAUGGCACCUUAUUGGUGCCAGAAGGCAUGUCAAUUGACAUGAGGAUCACCCAUGUGUUGUCGUUGGCG [salish99_SSNG1_r04_609] (Eterna round: R96, puzzle: Same State NG 1) | 698 nM | 72.4 nM | 742 nM | – | – | –
GCCGUAAUAACAUGAGGAUCACCCAUGUGCGCGAGAGUGGAUGAGGAUAUCGAUGGGUUUCCCGUCGAGAAGGCGUGGGUCGGC [JL SSNG3 3.98] (Eterna round: R96, puzzle: Same State NG 3) | 28 nM | 24.5 nM | 38.5 nM | – | – | –
GCGAAGAGGUAAGGAUAUGCAUGGCGGAGACAUGAGGAUCACCCAUGUUGGAGACGAAAUCUAGGGUAGAAGGUACCAGGAAGC [AK SSNG2-V2-12] (Eterna round: R96, puzzle: Same State NG 2) | 61.9 nM | 52.6 nM | 72.1 nM | – | – | –
GCGAGCGUACUUGCUACAUGAGGAUCACCCAUGUUUUAUGGACAGGAUAUGGUACCGUUUCGGUACCAGAAGGGUCCACAUGUA [JL SSNG3 3.84] (Eterna round: R96, puzzle: Same State NG 3) | 130 nM | 579 nM | 453 nM | – | – | –
GCGAGUGCCACAGGAUAUUCGGCUGUUUCGCUCGAAGAAGGGUGCCGCAUGCAAUAAAGAAAACAUGAGGAUCACCCAUGUGAA [Uszavege] (Eterna round: R96, puzzle: Same State NG 1) | 527 nM | 217 nM | 418 nM | – | – | –
GCGGAACGGGCCGACAUGAGGAUCACCCAUGUGCCCUCAUGUAAGGAUAUCGGGAAGAAGAAAACCGAGAAGGUACGGUGACGC [AK SSNG3-V2-30] (Eterna round: R96, puzzle: Same State NG 3) | 945 nM | 51.5 nM | 137 nM | – | – | –
GCGGCGGCACGGCAGGAUAUGAUAUAACCUACAUGAGGAUCACCCAUGUCGGCGGGUUGCAAAAUUCAGAAGGGCCCUGUAGGCC [Inberere] (puzzle: Same State 2) | – | – | – | 21.8 nM | 34.4 nM | 37.2 nM
GCUACCAAAGAAGCCAACAUGAGGAUCACCCAUGUAUGUUGGUAGGAUAUCGUUUGCAAAGCGAACGAGAAGGGCUAAGGUAGC [Mat - Same State NG 3 - JL Mod - D85] (Eterna round: R96, puzzle: Same State NG 3) | 151 nM | 88.1 nM | 101 nM | – | – | –
GCUAGAAAUAAAGCCAACAUGAGGAUCACCCAUGUAUGUUGGCAGGAUAUCGUAUGCAAAGCAUACGAGAAGGGCUAAACUAGC [Mat - Same State NG 3 - JL Mod - D6] (Eterna round: R96, puzzle: Same State NG 3) | 129 nM | 149 nM | 201 nM | – | – | –
GCUAGAAAUAAAGCCAACAUGAGGAUCACCCAUGUAUGUUGGUAGGAUAUCGUUUGCAAAGCAAACGAGAAGGGCCAAACUAGC [Mat - Same State NG 3 - JL Mod - D20] (Eterna round: R96, puzzle: Same State NG 3) | 86.5 nM | 104 nM | 137 nM | – | – | –
GCUAGAAUUAAAGCCAACAUGAGGAUCACCCAUGUAUGUUGGCAGGAUAUCGUUUGCUUUGCAAACGAGAAGGGCCAAACUAGC [JL SSNG3 1.01] (Eterna round: R96, puzzle: Same State NG 3) | 20.6 nM | 76.1 nM | 120 nM | – | – | –
GCUAGAAUUAACGCCUACAUGAGGAUCACCCAUGUAUGUAGGCAGGAUAUCGUUUGCUUUGCAAACGAGAAGGGCCUUACUAGC [JL SSNG3 1.11] (Eterna round: R96, puzzle: Same State NG 3) | 22.3 nM | 53.3 nM | 42 nM | – | – | –
GCUAGGAAAUAAGCCAACAUGAGGAUCACCCAUGUAUGUUGGUAGGAUAUCGUAUGCAAAGCAUACGAGAAGGGCUAACCUAGC [Mat - Same State NG 3 - JL Mod - D71] (Eterna round: R96, puzzle: Same State NG 3) | 69.5 nM | 62.8 nM | 76 nM | – | – | –
GCUCGAAUCAAAACCAACAUGAGGAUCACCCAUGUAUGUUGGUAGGAUAUCGUUUGCUUUGCAAACGAGAAGGGCCAAACGAGC [SameState NG3 #3] (Eterna round: R96, puzzle: Same State NG 3) | 69.2 nM | 121 nM | 127 nM | – | – | –
GCUCGACGUAUUGUCUACAUGAGGAUCACCCAUGUAGGUGCGGAGGAUAUUUACGUGUCUCAUGUAGAGAAGGUCGUGUCGAGC [SameState NG3 #95] (Eterna round: R96, puzzle: Same State NG 3) | 912 nM | 47.4 nM | 46.8 nM | – | – | –
GCUCGAUGAGCGAUUUACAUGAGGAUCACCCAUGUACGUGGGCAGGAUAUUUACGUGCUUUGUGUAGAGAAGGGCCCAUCGAGC [SameState NG3 #72] (Eterna round: R96, puzzle: Same State NG 3) | 107 nM | 309 nM | 546 nM | – | – | –
GCUCGAUGAGCGUUUUACAUGAGGAUCACCCAUGUUCGUGGGCAGGAUAUUUACGUGCGGAGUGUAGAGAAGGGCCCAUCGAGC [SameState NG3 #68] (Eterna round: R96, puzzle: Same State NG 3) | 71.3 nM | 391 nM | 674 nM | – | – | –
GCUCGAUGAGCUGUCUACAUGAGGAUCACCCAUGUAGAUGGGCAGGAUAUUUACGUGCUUUAUGUAGAGAAGGGCCCAUCGAGC [SameState NG3 #78] (Eterna round: R96, puzzle: Same State NG 3) | 15.5 nM | 123 nM | 169 nM | – | – | –
GCUCGAUGAUAGGCCUACAUGAGGAUCACCCAUGUAAGUGGGCAGGAUAUCUACAUGCAGAAUGUAGAGAAGGGCCCGUCGAGC [SameState NG3 #55] (Eterna round: R96, puzzle: Same State NG 3) | 20.5 nM | 66 nM | 83.9 nM | – | – | –
GCUCGGAUGAUGACCCACAUGAGGAUCACCCAUGUGCGUGGGCAGGAUAUCUAGAUUAAGGAUGUAGAGAAGGGUCUACCGAGC [SameState NG3 #31] (Eterna round: R96, puzzle: Same State NG 3) | 964 nM | 318 nM | 407 nM | – | – | –
GCUCGGAUGAUGGCCCACAUGAGGAUCACCCAUGUGCGUGGGCAGGAUAUCUAGAUUAAGGAUGUAGAGAAGGGUCUACCGAGC [SameState NG3 #32] (Eterna round: R96, puzzle: Same State NG 3) | 194 nM | 67.9 nM | 128 nM | – | – | –
GCUGGAAACCACAUGAGGAUCACCCAUGUUCCGGAAACGGCGCAGGAUAUCUGUCCGAAAAGGUCAGAGAAGGGUGGAACCAGC [Fiskers NG3ss - 81] (Eterna round: R96, puzzle: Same State NG 3) | 232 nM | 136 nM | 164 nM | – | – | –
GCUUCACAUGAGGAUCACCCAUGUUUUCGGAGUCGAGGAUAUGGUCACUGUAAACAGUGGCCAGAAGGCGAGGAGC [SS1 - Son of Teenbexe v8] (puzzle: Same State 1) | – | – | – | – | 17 nM | –
GGAAACUUGAGAGGAUAUGUAGAGGAUCACCCUACAGAAGGCUCUUUUGAGAGGAUAUGUAGAGGAUCACCCUACAGAAGGCUC [pwkr ssNG DX.14] (Eterna round: R96, puzzle: Same State NG 1) | 30.7 nM | 26.5 nM | 87 nM | – | – | –
GGAAUAUGAUGUUACAUGAGGAUCACCCAUGUAGUAAUAACUAAGGAUAUUUGAAAGGGAGGAGAAGAGAAGGUAGGAUCAUAA [AK SSNG3-V2-11] (Eterna round: R96, puzzle: Same State NG 3) | 61 nM | 41.3 nM | 63.8 nM | – | – | –
GGAAUAUGAUGUUACAUGAGGAUCACCCAUGUAGUGACAACUAAGGAUAUCUGAAAGGAAGGAGAGGAGAAGGUAGGAUCAUAA [AK SSNG3-V2-14] (Eterna round: R96, puzzle: Same State NG 3) | 20 nM | 24.6 nM | 33.3 nM | – | – | –
GGAAUAUUUACAGGAUAUGAGUUGUAAAGUCGAUCAGAAGGGUAGGUGUUUUGCACGGUGUGUUACAUGAGGAUCACCCAUGUU [SameState NG1 #22] (Eterna round: R96, puzzle: Same State NG 1) | 74.1 nM | 66.2 nM | 123 nM | – | – | –
GGACGUCAUCUCAAUGAUUAAACAUGAGGAUCACCCAUGUCACAGGAUAUGGAUCCUAAUUGGAUCCAGAAGGGUGUGACGUCC [Fiskers NG3ss - 44] (Eterna round: R96, puzzle: Same State NG 3) | 121 nM | 98.2 nM | 148 nM | – | – | –
GGACGUCGAUAAUAUAAUCUCACAUGAGGAUCACCCAUGUCACAGGAUAUGGAUCCUAAUUGGAUCCAGAAGGGUGCGACGUCC [Fiskers NG3ss - 35] (Eterna round: R96, puzzle: Same State NG 3) | 73.3 nM | 235 nM | 373 nM | – | – | –
GGAGCCAAGGCAGGAUAUUCAUAUUAAAACAUGAGGAUCACCCAUGUAAAGGCCAGAAGGCCUUGGGAGAAGGGCCAUGGCUCG [Xeonanis - 13 mod1] (Eterna round: R96, puzzle: Same State NG 2) | 19.9 nM | 37.6 nM | 49 nM | – | – | –
